Sequences and labels used below:
B1: B-cell lymphoma/leukemia 10 (Homo sapiens), O95999 (parent)
chain: MEPTAPSLTEEDLTEVKKDALENLRVYLCEKIIAERHFDHLRAKKILSREDTEEISCRTSSRKRAGKLLDYLQENPKGLDTLVESIRREKTQNFLIQKITDEVLKLRNIKLEHLKGLKCSSCEPFPDGATNNLSRSNSDESNFSEKLRASTVMYHPEGESSTTPFFSTNSSLNLPVLEVGRTENTIFSSTTLPRPGDPGAPPLPPDLQLEEEGTCANSSEMFLPLRSRTVSRQ
partner: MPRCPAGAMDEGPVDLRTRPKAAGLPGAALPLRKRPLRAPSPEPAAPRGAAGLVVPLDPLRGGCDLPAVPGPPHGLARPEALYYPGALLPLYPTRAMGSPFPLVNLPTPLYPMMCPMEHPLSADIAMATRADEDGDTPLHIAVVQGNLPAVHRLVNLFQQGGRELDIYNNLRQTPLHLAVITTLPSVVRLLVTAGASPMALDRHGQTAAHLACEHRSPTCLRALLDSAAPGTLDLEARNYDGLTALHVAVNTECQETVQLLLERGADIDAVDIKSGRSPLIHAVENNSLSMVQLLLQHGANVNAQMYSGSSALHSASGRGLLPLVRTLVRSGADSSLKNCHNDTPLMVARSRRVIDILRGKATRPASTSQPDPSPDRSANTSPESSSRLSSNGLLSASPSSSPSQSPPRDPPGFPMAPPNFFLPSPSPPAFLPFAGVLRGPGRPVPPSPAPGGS

In the test the parent is B1. To be noted: with bcl3_human BCL3, P20749.
Consider MEPTAPSLTEEDLTEVKKDALENLRVYLCEKIIAERHFDHLRAKKILSREDTEEISCRTSSRKRAGKLLDYLQENPKGLDTLVESIRREKTQNFLIQKITDEVLKLRNIKLEHLKGLKCSSCEPFPDGATNNLSRSNSDESNFSEKLRASTVMYHPEGESSTTPFFSTNSSLNLPVLEVGRTENTIFSSTTLPRPGDPGAPPLPPDLQLEEEGTCANDSEMFLPLRSRTVSRQ [S218D], for which the “effect of a mutation on the interaction” value is “increasing interaction”. The result for MEPTAPSLTEEDLTEVKKDALENLRVYLCEKIIAERHFDHLRAKKILSREDTEEISCRTSSRKRAGKLLDYLQENPKGLDTLVESIRREKTQNFLIQKITDEVLKLRNIKLEHLKGLKCSSCEPFPDGATNNLSRSNSDESNFSEKLRASTVMYHPEGESSTTPFFSTNSSLNLPVLEVGRTENTIFSSTTLPRPGDPGAPPLPPDLQLEEEGTCANSSEMFLPLRSRTVDRQ [S231D] reads “increasing interaction”.

Values taken from IntAct's records for PubMed 16280327.
